Assay results as given in patent publication US20090196880A1 (VASGENE THERAPEUTICS, published 2009).
Each block holds one binder with its values, some of them ahead of it.

Target: T1, EphB4 in whole cell lysate of 293 cells stably transfected with EphB4 (human, UniProt P54760 16-987)
T1 construct: Denatured protein from the lysate of transfected 293 cells (Western blot)
T1 sequence: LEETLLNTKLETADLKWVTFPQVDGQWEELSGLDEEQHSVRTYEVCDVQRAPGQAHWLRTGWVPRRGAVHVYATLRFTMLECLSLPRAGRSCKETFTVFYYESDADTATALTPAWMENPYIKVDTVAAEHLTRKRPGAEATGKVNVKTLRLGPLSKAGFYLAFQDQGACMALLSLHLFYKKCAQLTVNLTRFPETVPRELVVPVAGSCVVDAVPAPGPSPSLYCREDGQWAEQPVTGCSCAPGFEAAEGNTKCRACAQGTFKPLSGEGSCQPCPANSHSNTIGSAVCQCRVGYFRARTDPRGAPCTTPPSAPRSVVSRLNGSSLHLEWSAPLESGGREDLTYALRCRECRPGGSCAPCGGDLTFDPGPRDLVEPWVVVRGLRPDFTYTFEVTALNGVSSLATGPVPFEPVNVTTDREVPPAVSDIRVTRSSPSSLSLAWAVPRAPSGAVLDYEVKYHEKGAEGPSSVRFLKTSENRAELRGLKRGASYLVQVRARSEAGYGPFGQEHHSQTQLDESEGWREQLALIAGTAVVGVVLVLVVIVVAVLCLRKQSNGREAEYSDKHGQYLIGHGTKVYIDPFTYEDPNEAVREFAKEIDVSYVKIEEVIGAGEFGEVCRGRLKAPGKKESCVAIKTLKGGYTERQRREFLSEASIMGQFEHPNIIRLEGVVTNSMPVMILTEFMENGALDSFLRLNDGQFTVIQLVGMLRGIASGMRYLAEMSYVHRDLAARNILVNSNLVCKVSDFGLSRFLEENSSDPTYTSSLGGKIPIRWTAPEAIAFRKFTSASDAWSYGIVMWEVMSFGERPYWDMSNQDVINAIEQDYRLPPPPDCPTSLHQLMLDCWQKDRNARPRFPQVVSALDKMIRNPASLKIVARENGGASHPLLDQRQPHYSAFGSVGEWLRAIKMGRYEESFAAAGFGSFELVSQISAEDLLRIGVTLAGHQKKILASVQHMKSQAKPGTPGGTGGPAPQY
Assay: Western blot on lysate of EphB4-transfected 293 cells

- binding result: binds
B1: mouse monoclonal antibody #131 (antibody, V domains shown)
VH: QVQLKQSGAELVKPGASVKISCKASGYTFTDYYINWVKQRPGQGLEWIGKIGPRIGTNYYNENFKGKATLTADISSNTAYMQLHTLTSEDSAVYFCARSEDYSGYVSYALDYWGQGTSVTVSS
VL: NIVMTQSPKSMSMSVGERVTLSCKASENVDTYVSWYQQKPDQSPELLIYGASNRYTGVPDRFTGSGSATDFTLTISSVQAEDLADYHCGQTYRYPFTFGGGTKLEIK
notes: also called m131

- binding result: binds
B2: mouse monoclonal antibody #47 (antibody, V domains shown)
VH: EVQLQQSGPELVKPGASVKISCKASGYTFTDYYMNWVKQSHGKGLEWIGDNNPNNGGTTYNQKFKGKATLTVDKSSSTAYMELRSLTSEDSAVYYCARGKYYGTSYGWYFDVWGTGTTVTVSS
VL: DIQMTQSPASLSASVGETVTITCRISDNIDSYLAWFQQKQGKSPQLLVYDATVLADGVPSRFSGSGSGTQYSLKINSLQSEDAARYYCQVYYSIPWTFGGGTKLEIK
notes: also called m47; Mu #47
